Literature values, collected in patent US8759613B1, “Method of producing a lunasin polypeptide in plants” (University of Louisville Research Foundation, Inc., priority 2009, dated 2014).

Details: oral administration; digestion

For “lunasin: polypeptide of 43-44 amino acids from soybean with a C-terminal end of nine consecutive aspartic acid residues (MSKWQHQQDSCRKQLQGVNLTPCEKHIMEKIQGRGDDDDDDDDD; Glycine max)”, the orally-administered lunasin degraded is listed as ≤ 95%.
